According to patent publication US20260109776A1 (Amgen, published 2026):

T1: cynoMSLN(296-598) (cynomolgus monkey)
T1 chain: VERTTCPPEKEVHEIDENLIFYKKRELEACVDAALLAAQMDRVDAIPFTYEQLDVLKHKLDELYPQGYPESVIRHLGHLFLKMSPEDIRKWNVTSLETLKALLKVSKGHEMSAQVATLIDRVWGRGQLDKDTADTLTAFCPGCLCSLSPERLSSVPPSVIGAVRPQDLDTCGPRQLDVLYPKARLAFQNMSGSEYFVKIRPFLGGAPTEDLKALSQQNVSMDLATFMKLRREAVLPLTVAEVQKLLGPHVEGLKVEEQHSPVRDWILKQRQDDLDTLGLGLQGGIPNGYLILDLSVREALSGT

T2: cynoCD40(1-193) (cynomolgus monkey, UniProt P25942 21-193 (human entry))
T2 construct: also called soluble cynomolgus monkey CD40
T2 chain: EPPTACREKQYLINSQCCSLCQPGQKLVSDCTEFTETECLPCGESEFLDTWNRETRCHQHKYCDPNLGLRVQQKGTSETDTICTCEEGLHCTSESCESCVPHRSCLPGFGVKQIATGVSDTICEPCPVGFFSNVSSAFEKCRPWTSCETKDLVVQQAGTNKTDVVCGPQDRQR

B1: 6051-2 (bispecific antibody)
heavy: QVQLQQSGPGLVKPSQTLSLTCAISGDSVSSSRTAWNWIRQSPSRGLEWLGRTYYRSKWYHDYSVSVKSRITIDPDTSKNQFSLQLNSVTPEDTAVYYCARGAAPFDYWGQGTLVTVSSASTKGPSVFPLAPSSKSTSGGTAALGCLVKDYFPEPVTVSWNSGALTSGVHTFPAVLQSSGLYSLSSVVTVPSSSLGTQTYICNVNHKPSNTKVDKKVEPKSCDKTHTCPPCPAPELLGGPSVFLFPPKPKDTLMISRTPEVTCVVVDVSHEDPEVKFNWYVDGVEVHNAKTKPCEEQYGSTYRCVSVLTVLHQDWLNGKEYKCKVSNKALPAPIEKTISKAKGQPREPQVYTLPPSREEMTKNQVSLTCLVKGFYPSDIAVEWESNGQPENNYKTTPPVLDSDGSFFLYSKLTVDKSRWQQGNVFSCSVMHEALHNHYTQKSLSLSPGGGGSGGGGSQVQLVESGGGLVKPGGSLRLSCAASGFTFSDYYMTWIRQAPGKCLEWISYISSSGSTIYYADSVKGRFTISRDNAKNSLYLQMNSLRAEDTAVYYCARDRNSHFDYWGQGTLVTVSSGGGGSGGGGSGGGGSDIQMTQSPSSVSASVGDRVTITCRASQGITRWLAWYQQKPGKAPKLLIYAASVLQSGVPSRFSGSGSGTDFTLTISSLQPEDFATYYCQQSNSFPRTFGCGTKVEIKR
light: EIVLTQSPGTLSLSPGERATLSCRASQSVSSNYLAWYQQKPGQAPRALIYAASNRAAGISDRFSGSGSGTDFTLTISRLEPEDFAVYFCQQYGSSPLTFGGGTKVEIKRTVAAPSVFIFPPSDEQLKSGTASVVCLLNNFYPREAKVQWKVDNALQSGNSQESVTEQDSKDSTYSLSSTLTLSKADYEKHKVYACEVTHQGLSSPVTKSFNRGEC
notes: IgG-scFv: IgG (CD40) 36F3, scFv (MSLN) 4H6
B2: 6055-2 (bispecific antibody)
heavy: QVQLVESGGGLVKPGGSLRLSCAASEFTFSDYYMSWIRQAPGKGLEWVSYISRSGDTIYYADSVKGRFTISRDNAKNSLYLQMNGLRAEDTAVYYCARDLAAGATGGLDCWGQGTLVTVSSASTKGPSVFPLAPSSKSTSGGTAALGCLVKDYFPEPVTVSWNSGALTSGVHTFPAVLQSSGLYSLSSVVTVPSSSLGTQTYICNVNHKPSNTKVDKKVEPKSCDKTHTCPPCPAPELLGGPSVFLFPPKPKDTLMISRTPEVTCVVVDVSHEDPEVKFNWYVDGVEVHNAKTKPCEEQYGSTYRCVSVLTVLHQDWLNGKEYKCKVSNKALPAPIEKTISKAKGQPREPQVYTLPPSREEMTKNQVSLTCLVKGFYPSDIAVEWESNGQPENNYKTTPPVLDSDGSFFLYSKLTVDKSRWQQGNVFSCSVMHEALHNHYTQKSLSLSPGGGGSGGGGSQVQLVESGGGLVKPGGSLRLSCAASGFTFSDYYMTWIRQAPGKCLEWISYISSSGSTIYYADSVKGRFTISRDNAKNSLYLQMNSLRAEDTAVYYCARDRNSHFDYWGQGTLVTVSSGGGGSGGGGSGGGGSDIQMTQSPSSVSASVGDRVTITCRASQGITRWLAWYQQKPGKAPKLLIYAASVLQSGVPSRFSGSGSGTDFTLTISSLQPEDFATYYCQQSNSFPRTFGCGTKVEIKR
light: SYELTQPPSVSVSPGQTASITCSGERLGNKYICWYQQKPGQSPVLVIYQDFKRPSGIPERFSGSNSGITATLTISGTQAMDEADYYCQAWDSRTVVFGGGTKLTVLGQPKAAPSVTLFPPSSEELQANKATLVCLISDFYPGAVTVAWKADSSPVKAGVETTTPSKQSNNKYAASSYLSLTPEQWKSHRSYSCQVTHEGSTVEKTVAPTECS
notes: IgG-scFv: IgG (CD40) 37A6, scFv (MSLN) 4H6
B3: 6054-2 (bispecific antibody)
heavy: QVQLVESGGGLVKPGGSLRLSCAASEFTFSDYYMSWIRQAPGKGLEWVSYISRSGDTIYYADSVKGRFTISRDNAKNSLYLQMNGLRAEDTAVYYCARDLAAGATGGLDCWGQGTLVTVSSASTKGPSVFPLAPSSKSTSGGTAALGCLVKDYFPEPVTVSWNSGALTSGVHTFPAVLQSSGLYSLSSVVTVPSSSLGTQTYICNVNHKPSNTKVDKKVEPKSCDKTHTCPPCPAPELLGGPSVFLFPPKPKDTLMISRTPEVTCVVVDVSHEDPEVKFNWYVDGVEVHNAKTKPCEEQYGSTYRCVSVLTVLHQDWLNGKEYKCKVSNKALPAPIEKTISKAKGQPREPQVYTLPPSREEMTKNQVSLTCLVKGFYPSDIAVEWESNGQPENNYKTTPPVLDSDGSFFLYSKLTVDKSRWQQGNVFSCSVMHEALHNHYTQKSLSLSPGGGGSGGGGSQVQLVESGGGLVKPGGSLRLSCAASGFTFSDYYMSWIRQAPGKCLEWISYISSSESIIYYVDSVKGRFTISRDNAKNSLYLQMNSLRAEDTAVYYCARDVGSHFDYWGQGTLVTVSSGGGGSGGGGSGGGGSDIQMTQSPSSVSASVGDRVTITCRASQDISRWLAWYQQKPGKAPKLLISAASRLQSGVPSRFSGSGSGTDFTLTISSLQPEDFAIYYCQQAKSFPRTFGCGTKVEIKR
light: B2 light
notes: IgG-scFv: IgG (CD40) 37A6, scFv (MSLN) 6F4
B4: 6053-2 (bispecific antibody)
heavy: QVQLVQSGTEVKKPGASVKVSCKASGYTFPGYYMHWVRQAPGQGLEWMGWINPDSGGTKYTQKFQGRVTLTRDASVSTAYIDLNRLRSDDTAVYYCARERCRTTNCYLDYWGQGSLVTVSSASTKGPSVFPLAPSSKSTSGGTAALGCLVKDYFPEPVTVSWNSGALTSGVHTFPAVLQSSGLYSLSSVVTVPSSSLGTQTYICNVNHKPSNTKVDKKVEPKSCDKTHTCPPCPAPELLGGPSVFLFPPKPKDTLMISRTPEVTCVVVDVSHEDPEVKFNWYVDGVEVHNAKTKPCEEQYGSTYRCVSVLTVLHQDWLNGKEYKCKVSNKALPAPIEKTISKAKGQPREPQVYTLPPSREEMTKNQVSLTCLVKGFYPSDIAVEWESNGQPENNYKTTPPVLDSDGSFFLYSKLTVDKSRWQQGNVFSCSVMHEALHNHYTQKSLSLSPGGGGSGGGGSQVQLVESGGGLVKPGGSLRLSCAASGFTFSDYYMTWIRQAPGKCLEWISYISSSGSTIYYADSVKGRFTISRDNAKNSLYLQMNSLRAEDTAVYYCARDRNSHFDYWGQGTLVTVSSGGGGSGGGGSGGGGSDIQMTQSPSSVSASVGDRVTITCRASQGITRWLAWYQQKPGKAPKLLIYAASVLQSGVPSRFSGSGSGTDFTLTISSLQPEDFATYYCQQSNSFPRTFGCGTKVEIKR
light: QSALTQPASVSGSPGQSITISCTGTSSDVGNYNLVSWYQQHPGKAPKLMIYEVNRRPSGVSNRFSGSKSGNTASLTISGLQAEDEAEYYCCSYAGRDTFVVFGGGTKLTVLGQPKAAPSVTLFPPSSEELQANKATLVCLISDFYPGAVTVAWKADSSPVKAGVETTTPSKQSNNKYAASSYLSLTPEQWKSHRSYSCQVTHEGSTVEKTVAPTECS
notes: IgG-scFv: IgG (CD40) 39C2, scFv (MSLN) 4H6
B5: 6023-2 (bispecific antibody)
heavy: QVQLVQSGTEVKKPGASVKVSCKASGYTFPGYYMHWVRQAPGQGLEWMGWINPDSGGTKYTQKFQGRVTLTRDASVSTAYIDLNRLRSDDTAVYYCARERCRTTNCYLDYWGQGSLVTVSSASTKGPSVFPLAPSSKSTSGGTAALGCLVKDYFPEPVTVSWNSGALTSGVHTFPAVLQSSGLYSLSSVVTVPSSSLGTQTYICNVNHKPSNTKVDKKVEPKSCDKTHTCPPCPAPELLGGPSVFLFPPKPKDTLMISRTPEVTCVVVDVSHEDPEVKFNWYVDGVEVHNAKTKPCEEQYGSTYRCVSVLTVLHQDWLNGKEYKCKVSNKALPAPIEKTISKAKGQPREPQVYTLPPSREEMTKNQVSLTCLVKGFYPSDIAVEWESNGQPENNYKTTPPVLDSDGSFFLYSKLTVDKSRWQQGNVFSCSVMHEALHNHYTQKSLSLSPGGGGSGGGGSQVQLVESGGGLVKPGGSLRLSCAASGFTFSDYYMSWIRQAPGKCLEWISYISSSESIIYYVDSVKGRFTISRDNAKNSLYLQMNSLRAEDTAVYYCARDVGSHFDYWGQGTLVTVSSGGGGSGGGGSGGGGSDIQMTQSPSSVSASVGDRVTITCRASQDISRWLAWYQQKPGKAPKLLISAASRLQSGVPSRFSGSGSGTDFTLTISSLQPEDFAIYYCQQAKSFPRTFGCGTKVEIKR
light: B4 light
notes: IgG-scFv: IgG (CD40) 39C2, scFv (MSLN) 6F4

Assays:
cynoMSLN(296-598) = biological target: T1, cynoMSLN(296-598); test: Octet
Description: (§1) A panel of mesothelin×CD40 bispecific antibodies were generated in the IgG-scFv format (Table 13) and evaluated for binding to soluble forms of human and cynomolgus monkey CD40 and human and cynomolgus monkey mesothelin using the Octet assay (Table 14). Association rate (Kon), disassociation rate (Kdis), and equilibrium binding constant (KD) were calculated. […] These bispecific antibodies were next evaluated for their ability to induce mesothelin-dependent activation of human B cells. CHO cells expressing human mesothelin were seeded into a 96 well plate. The next day varying concentrations of the mesothelin×CD40 IgG-scFv antibodies were added to the wells along with purified human B cells and the plates were incubated for an additional 48 hours. Upregulation of CD86, a marker of CD40-mediated B cell activation, was quantified on B cells by flow cytometry.

cynoCD40(1-193) = biological target: T2, cynoCD40(1-193); test: Octet
Description: as §1

huMSLN(296-598) = biological target: T3, huMSLN(296-598) (human, UniProt Q13421 296-598); test: Octet
T3 construct: also called soluble human mesothelin
Description: as §1

huCD40(1-193) = biological target: T4, huCD40(1-193) (human, UniProt P25942 21-193); test: Octet
T4 construct: also called soluble human CD40
Description: as §1

human CD40 = human CD40 (human, UniProt P25942 21-277); test: cell-based or functional assay

T3 sequence (Q13421 other isoform, or with tags, fused parts or gaps): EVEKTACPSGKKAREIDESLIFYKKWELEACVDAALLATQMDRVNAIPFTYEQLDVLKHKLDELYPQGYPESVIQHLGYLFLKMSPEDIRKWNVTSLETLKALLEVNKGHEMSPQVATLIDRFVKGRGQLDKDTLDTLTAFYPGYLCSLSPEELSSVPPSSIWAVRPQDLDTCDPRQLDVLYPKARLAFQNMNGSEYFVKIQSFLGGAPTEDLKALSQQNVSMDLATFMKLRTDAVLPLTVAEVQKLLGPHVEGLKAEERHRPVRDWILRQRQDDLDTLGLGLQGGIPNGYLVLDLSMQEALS

Binder	Kd (cynoMSLN(296-598))	koff (cynoMSLN(296-598))	kon (cynoMSLN(296-598))	Kd (cynoCD40(1-193))	koff (cynoCD40(1-193))	kon (cynoCD40(1-193))	Kd (huMSLN(296-598))	koff (huMSLN(296-598))	kon (huMSLN(296-598))	Kd (huCD40(1-193))	koff (huCD40(1-193))	kon (huCD40(1-193))	EC50 (nM), CD86 upregulation on human B cells with huMSLN-CHO cells (human CD40)
B1	5.5 nM	0.00105 s⁻¹	191000 M⁻¹ s⁻¹	4.7 nM	0.000466 s⁻¹	100000 M⁻¹ s⁻¹	0.2 nM	0.000135 s⁻¹	599000 M⁻¹ s⁻¹	3.5 nM	0.000431 s⁻¹	124000 M⁻¹ s⁻¹	0.00375 nM
B2	6.1 nM	0.00109 s⁻¹	179000 M⁻¹ s⁻¹	0.8 nM	0.00057 s⁻¹	745000 M⁻¹ s⁻¹	0.4 nM	0.000211 s⁻¹	552000 M⁻¹ s⁻¹	0.5 nM	0.000787 s⁻¹	1.46e+06 M⁻¹ s⁻¹	0.00434 nM
B3	17 nM	0.00578 s⁻¹	336000 M⁻¹ s⁻¹	1.4 nM	0.0004 s⁻¹	277000 M⁻¹ s⁻¹	1.3 nM	0.000462 s⁻¹	367000 M⁻¹ s⁻¹	0.8 nM	0.000333 s⁻¹	438000 M⁻¹ s⁻¹	0.00333 nM
B4	4.3 nM	0.00109 s⁻¹	252000 M⁻¹ s⁻¹	0.5 nM	0.000125 s⁻¹	263000 M⁻¹ s⁻¹	0.4 nM	0.000151 s⁻¹	341000 M⁻¹ s⁻¹	0.9 nM	0.000427 s⁻¹	453000 M⁻¹ s⁻¹	0.00403 nM
B5	16 nM	0.00535 s⁻¹	326000 M⁻¹ s⁻¹	0.9 nM	0.000413 s⁻¹	447000 M⁻¹ s⁻¹	1.1 nM	0.00046 s⁻¹	432000 M⁻¹ s⁻¹	1 nM	0.00044 s⁻¹	431000 M⁻¹ s⁻¹	0.00281 nM
